One protein from patent US20110300561 can be followed below.

One data set has as its target T1, Ala-Ser.
T1 chain: AS

Another data set deals with T2, Lys-Leu.
T2 chain: KL

Another data set concerns the target T3, Lys-Phe.
T3 chain: KF

The target in another data set is T4, His-Leu.
T4 chain: HL

A further data set concerns the target T5, Arg-Ala.
T5 chain: RA

The target in a further data set is T6, Arg-Leu.
T6 chain: RL

Another data set has as its target T7, Phe-Val.
T7 chain: FV

Another data set concerns the target T8, Asp-Lys.
T8 chain: DK

A further data set addresses T9, Gly-Lys.
T9 chain: GK

The next data set has as its target T10, Gly-Ser.
T10 chain: GS

For a further data set, the target named is T11, Arg-Ile.
T11 chain: RI

For a further data set, the target named is T12, Ser-His.
T12 chain: SH

In another data set the target is T13, Arg-Val.
T13 chain: RV

B1: Staphylococcus aureus N-Succinyl-L,L-DAP Desuccinylase (DapE) (protein)
chain: MWKEKVQQYEDQIINDLKGLLAIESVRDDAKASEDAPVGPGPRKALDYMYEIAHRDGFTTHDVDHIAGRIEAGKGNDVLGILCHVDVVPAGDGWDSNPFEPVVTEDAIIARGTLDDKGPTIAAYYAIKILEDMNVDWKKRIHMIIGTDEESDWKCTDRYFKTEEMPTLGFAPDAEFPCIHGEKGITTFDLVQNKLTEDQDEPDYELITFKSGERYNMVPDHAEARVLVKENMTDVIQDFEYFLEQNHLQGDSTVDSGILVLTVEGKAVHGMDPSIGVNAGLYLLKFLASLNLDNNAQAFVAFSNRYLFNSDFGEKMGMKFHTDVMGDVTTNIGVITYDNENAGLFGINLRYPEGFEFEKAMDRFANEIQQYGFEVKLGKVQPPHYVDKNDPFVQKLVTAYRNQTNDMTEPYTIGGGTYARNLDKGVAFGAMFSDSEDLMHQKNEYITKKQLFNATSIYLEAIYSLCVEE
Take B1: the “Activity (S. aureus DapE Qualitative Dipeptidase Activity, TLC assay)” value (shortened to “Activity”) with Ala-Ser is “+”; in the data set with Lys-Leu, “++”; with Lys-Phe it was “++”; with His-Leu, “+”; in the data set with Arg-Ala, “+++”; in the data set with Arg-Leu, “+++”. The “Activity” value in the data set with Phe-Val is recorded as “+++”; with Asp-Lys it was “+”; in the data set with Gly-Lys, “+”; with Gly-Ser, “+”; with Arg-Ile, “+++”; with Ser-His, “++”. For the same protein, the “Activity” value in the data set with Arg-Val is on record as “+++”.
